Measurements as given in PMC5587665.

Columns and labels:
[1] = target: GTP-γS-tubulin-dimer (porcine brain tubulin), P02550;Q767L7; assay: DLS; conditions: room temperature; 1:1 mixture
[2] = target: GTP-γS-tubulin-dimer (porcine brain tubulin), P02550;Q767L7; assay: SEC-MALS
[3] = target: GTP-γS-tubulin-dimer (porcine brain tubulin) (porcine) (UniProt P02550); assay: SEC; size-exclusion chromatography at 4 °C; tubulin with the GTP analog GTP-γS; 1:1 mixture of each 1 mM (so in the source) CP525 and tubulin-dimer; fractions checked by SDS-PAGE

Substance | other: %Polyd (polydispersity of the mixture) [1] | other: MW-R (of the mixture) [1] | other: Rh (hydrodynamic radius of the mixture) [1] | other: Molar mass of the mixture, Peak 1 [2] | other: Molar mass of the mixture, Peak 2 [2] | stoichiometry N (CP525:tubulin-dimer) [3]
CP525 (7 x His-tag and human CRMP2 residues 1-525) (from UniProt Q16555) T246A; N247A | 52% | 524 kDa | 8.6 nm | 214 kDa | 113 kDa | –
CP525 (7 x His-tag and human CRMP2 residues 1-525) (from UniProt Q16555) K483A; R485A; R487A | 64.9% | 538 kDa | 8.8 nm | 95.9 kDa | 86.2 kDa | –
CP525 (7 x His-tag and human CRMP2 residues 1-525) (from UniProt Q16555 1-525) (domain or fragment) | – | – | – | – | – | 1
